T1: human Siglec-15 (Acro, Cat. No. SG5-H52H3) (human, UniProt Q6ZMC9 20-263)
T1 construct: Bought reagent used as the analyte in the Octet assay; also called antigen
T1 sequence (looked up): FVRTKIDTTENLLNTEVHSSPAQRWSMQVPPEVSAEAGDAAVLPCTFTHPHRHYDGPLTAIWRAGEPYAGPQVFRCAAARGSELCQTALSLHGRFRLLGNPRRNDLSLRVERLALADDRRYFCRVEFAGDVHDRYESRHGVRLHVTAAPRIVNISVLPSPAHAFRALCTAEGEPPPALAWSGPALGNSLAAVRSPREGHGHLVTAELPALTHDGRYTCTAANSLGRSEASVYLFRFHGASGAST

T2: extracellular domain of monkey Siglec-15 on monkey S15ECD-293T cells (monkey)
T2 chain: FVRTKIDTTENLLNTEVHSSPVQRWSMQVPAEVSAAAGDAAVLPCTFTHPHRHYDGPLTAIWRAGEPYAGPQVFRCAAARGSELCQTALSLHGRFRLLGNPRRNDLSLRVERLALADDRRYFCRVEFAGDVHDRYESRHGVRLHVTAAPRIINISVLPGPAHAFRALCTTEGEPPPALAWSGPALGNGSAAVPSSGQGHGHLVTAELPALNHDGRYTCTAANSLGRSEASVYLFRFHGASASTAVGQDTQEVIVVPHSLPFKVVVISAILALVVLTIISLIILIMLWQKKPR


How the values were obtained:
[1] = target: T1, human Siglec-15 (Acro, Cat. No. …); experiment: BLI (Octet RED96e), antibody captured on AHC sensor, 30 nM antigen, 1:1 fit; first assay
Protocol: (§1) Affinity of Siglec-15 binding protein of the present application to human Siglec-15 (Acro, Cat. No.: SG5-H52H3) was determined using Octet RED96e (Fortebio), both of the antigen and the Siglec-15 binding protein of the present application were diluted with 1×PBST (1×PBS: Sangon, B548117-0500; 0.02% Tween 20: Sigma-aldrich, P1379). The antigen is used at a concentration of 30 nM and the Siglec-15 binding protein of the present application is used at a concentration of 33.3 nM.
(§2) First, a sample was added to a 96-well plate (Greiner bio-one, 655209) in a system of 200 μL/well. Software parameters were then set, the plate temperature was set to 30° C., and the frequency at which the standard kinetic signal was collected was 5.0 Hz. Next, the AHC sensor (Fortébio, Cat. No.: 18-0015) was pre-wetted with 1×PBST for 10 min, then the sample was loaded on the machine for detection, with each cycle containing the following steps: 1) immersing the sample in buffer for 60 s; 2) detecting whether the antigen has non-specific binding to the sensor; 3) regenerating in a 10 mM glycine solution at pH 1.7; 4) immersing in buffer for 60 s; 5) immobilizing the Siglec-15 binding protein of the present application on the sensor for 20 s; 6) immersing the sensor in buffer for 180 s; 7) binding the antigen to the Siglec-15 binding protein of the present application for 180 s; 8) dissociating the antigen with Siglec-15 binding protein of the present application for 10 min; and 9) regenerating the sensor.
(§3) The equilibrium dissociation constant (KD) of the Siglec-15 binding protein of the present application was calculated by determining the binding rate constant (kon) and dissociation rate constant (kdis) of the antigen-Siglec-15 binding protein of the present application in a 1:1 binding manner using Data Analysis 12.0 software fromx Fortebio.

[2] = target: T3, full length murine Siglec-15 on murine S15-CT26 cells (murine); experiment: flow cytometry on murine S15-CT26 cells, Alexa 488 secondary antibody
T3 construct: whole, on cells; also called murine Siglec-15 on the surface of a cell

[3] = target: T2, extracellular domain of monkey …; experiment: flow cytometry on monkey S15ECD-293T cells, Alexa 488 secondary antibody
[4] = target: T1, human Siglec-15 (Acro, Cat. No. …); experiment: BLI (Octet RED96e), antibody captured on AHC sensor, 30 nM antigen, 1:1 fit; second assay; design: Response value: unit not given here
Protocol: as §1, §2, §3

[5] = target: T4, extracellular domain of human Siglec-15 with PDGFR transmembrane domain on human S15ECD-293T cells (human, UniProt Q6ZMC9 20-263; P09619 513-561); experiment: flow cytometry on human S15ECD-293T cells, Alexa 488 secondary antibody; Ab9 on human S15ECD-293T cells
T4 construct: range 20-263;range 513-561; also called human Siglec-15 on the surface of a cell
From the text: (§4) The purified Siglec-15 binding protein of the present application was identified by flow cytometry for its function to bind to human S15ECD-293T cells of the present application. Human S15ECD-293T cells prepared by the methods of the present application can be expanded to 90% confluence in 15 cm cell culture dishes, media were pipetted completely, the cells were washed once with PBS buffer (Thermo Fisher, 10010049), then treated with enzyme-free cell dissociation buffer (Versene solution, Thermo Fisher, 15040066) and harvested. The cells were washed twice with PBS buffer and counted, the desired quantity of cells was removed for centrifugation, the cells were resuspended to 2×10^6 cells/ml with FACS buffer (PBS with 2% FBS). After incubation at room temperature for 15 min, the cell suspension was added to a U-shaped 96-well plate (Corning, 3798) at 50 μL/well. The Siglec-15 binding proteins of the present application were serially diluted in FACS buffer, the dilution was added to the above 96-well plate at 50 μL/well and incubated at 4° C. for 1 h. […] The cells were resuspended in 30 μL/well FACS buffer, and detected and analyzed by flow cytometry intellycite plus (Sartorius). […]

[6] = target: T1, human Siglec-15 (Acro, Cat. No. …); experiment: BLI (Octet RED96e), antibody captured on AHC sensor, 30 nM antigen, 1:1 fit; third assay
Protocol: as §1, §2, §3

[7] = target: T4, extracellular domain of human Siglec-15 …; experiment: flow cytometry on human S15ECD-293T cells, Alexa 488 secondary antibody; Ab15 on human S15ECD-293T cells
From the text: as §4

Row | Kd [1] | koff [1] | kon [1] | EC50 [2] | EC50 [3] | Kd [4] | Response value [4] | koff [4] | kon [4] | EC50 [5] | Kd [6] | koff [6] | kon [6] | EC50 [7] | Binder
1 | 109 pM | 3.24e-05 s⁻¹ | 298000 M⁻¹ s⁻¹ | – | – | – | – | – | – | – | – | – | – | – | Ab0, purified Siglec-15 binding protein in the form of IgG1 (antibody, V domains shown) VH: EVQLLESGGGLVQPGGSLRLSCAASGFTFSSYAMSWVRQAPGKGLEWVSTISGGGGSTYYADSVKGRFTISRDNSKNTLYLQMNSLRAEDTAVYYCAKAIGSSWYSDAFDLWGQGTMVTVSS VL: DIQMTQSPSSVSASVGDRVTITCRASQDISSWLAWYQQKPGKAPKLLIYVASSLQSGVPSRFSGSGSGTDFTLTISSLQPEDFATYYCQQSYSIPYTFGQGTKLEIKR
2 | – | – | – | 3250 pM | 922 pM | 87.3 pM | 0.259 | 3.88e-05 s⁻¹ | 445000 M⁻¹ s⁻¹ | 1520 pM | 69.1 pM | 3.59e-05 s⁻¹ | 519000 M⁻¹ s⁻¹ | – | Ab9, purified Siglec-15 binding protein in the form of IgG1 (antibody, V domains shown, Expressed in ExpiCHO cells in the form of IgG1) VH: EVQLLESGGGLVQPGGSLRLSCAASGFTFSSYAMSWVRQAPGKGLEWVSTISGGGGSTYYADSVKGRFTISRDNSKNTLYLQMNSLRAEDTAVYYCAKAIGSSWYSDAFDLWGQGTMVTVSS VL: DIQMTQSPSSVSASVGDRVTITCRASQDISDWLAWYQQKPGKAPKLLIYVASSLQSGVPSRFSGSGSGTDFTLTISSLQPEDFATYYCQQSYSIPYTFGQGTKLEIKR
3 | – | – | – | 1830 pM | 475 pM | 73 pM | 0.361 | 3.93e-05 s⁻¹ | 538000 M⁻¹ s⁻¹ | – | 91.6 pM | 4.35e-05 s⁻¹ | 475000 M⁻¹ s⁻¹ | 475 pM | Ab15, purified Siglec-15 binding protein in the form of IgG1 (antibody, V domains shown, Expressed in ExpiCHO cells in the form of IgG1) VH: EVQLLESGGGLVQPGGSLRLSCAASGFTFSSYAMSWVRQAPGKGLEWVSTITGGGESTYYADSVKGRFTISRDNSKNTLYLQMNSLRAEDTAVYYCAKAIGSSWYSDAFDLWGQGTMVTVSS VL: DIQMTQSPSSVSASVGDRVTITCRASQDISSWLAWYQQKPGKAPKLLIYVASYIHSGVPSRFSGSGSGTDFTLTISSLQPEDFATYYCQQSYSIPYTFGQGTKLEIKR
